The values that follow come from patent US7410767.

Test [1] has as its target T1, HLA-E (as used in the in vitro peptide binding assay and in immunoprecipitation) (human), P13747. In words: in vitro peptide binding assay (ratio of optical densities); row .221-A*3601.
Test [2] concerns the target T1, HLA-E (as used in the in vitro peptide …). In words: in vitro peptide binding assay (ratio of optical densities); row .221-A*0201.
For test [3] the target is unchanged. In words: in vitro peptide binding assay (ratio of optical densities); row .221-A*0211.
Test [4] shares this target. In words: in vitro peptide binding assay (ratio of optical densities); row .221-A*2403.
For test [5] the target is unchanged. As to the kind of experiment: in vitro peptide binding assay (ratio of optical densities); row .221-A*2501.
Test [6] has the same target. As to the kind of experiment: in vitro peptide binding assay (ratio of optical densities); row .221-B*5501.

As to VMAPRTLLL (modifications not checked), in test [1], the Concentration of peptide required to obtain 50% of binding to HLA-E was found to be 0.3 µM.

As for VMAPRTLVL (modifications not checked), the Concentration of peptide required to obtain 50% of binding to HLA-E in test [2], in test [3], in test [4] and in test [5] was 0.06 µM in each case.

For VTAPRTLLL (modifications not checked), in test [6], the Concentration of peptide required to obtain 50% of binding to HLA-E was above 100 µM.
